The supplement of paper PMC10126150
± gives the standard deviation of the averaged measurements.

test system: ATP; test: switch fluorescence ratio, 500 uM ATP over buffer (Cy3 cluster intensity, sum of 5 cycles each) (fold (ratio)); higher = stronger signal-on switching upon ATP binding; sequences stand for … in TCGTCGGCAGCGTCAGATGTGTATAAGAGACAGTTTTTTTTTTTTTTTTTTTTTTTTT…TC; details: aptamer strand: ATP DNA aptamer (quencher-CACCTGGGGGAGTATTGCGGAGGAAGG + anchor), 100 nM annealed; ATP concentration: 500 uM
Procedure, shortened: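 Values give the fluorescence ratio for each switch-domain sequence, averaged from per-cluster ratios of summed target-cycle to summed buffer-cycle Cy3 intensity. The Cy3-labelled switching-strand clusters sat on a modified Illumina MiSeq flow-cell, were annealed to 100 nM quencher-labelled ATP aptamer, and were imaged in selection buffer, then after 15 min with 500 uM ATP at 22 °C. Five cycles ran with NaOH stripping and re-annealing between them, and clusters outside 100-1000 RFU were excluded.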
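Also: ATP exposure 15 min at 22 °C before imaging.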

ATAATGCTCT and ATAATGGCCT are the same in switch fluorescence ratio: 1.02 ± 0.024 for the first, 1.02 ± 0.026 for the second.

ATAATGGGGT and ATAATGTACA are within error of each other in switch fluorescence ratio: 1.026 ± 0.0044 for the first, 1.04 ± 0.011 for the second.

ATAATGTGGG and ATAATGTTTT are within error of each other in switch fluorescence ratio: 0.99618 ± 0.00014 for the first, 1 ± 0.021 for the second.

ATAATTAATT and ATAATTCTAT are within error of each other in switch fluorescence ratio: 0.958 ± 0.03 for the first, 0.9819 ± 0.008 for the second.

ATACAAGTCT and ATACACGGCA are within error of each other in switch fluorescence ratio: 1.03 ± 0.059 for the first, 1.11 ± 0.03 for the second.

First: ATACAGCACC
Second: ATACAGGGGG
The switch fluorescence ratio of the first is higher: 1.45 ± 0.048 for the first, 1.02 ± 0.067 for the second.

First: ATACATCTAG
Second: ATACCTGAG
The switch fluorescence ratio of the first is lower: 0.996 ± 0.044 for the first, 1.53 ± 0.057 for the second.

ATACGAGGTC and ATACGAGGTG are within error of each other in switch fluorescence ratio: 1.01 ± 0.03 for the first, 1.07 ± 0.035 for the second.

ATACGCTGGT and ATACGGAGGC are within error of each other in switch fluorescence ratio: 0.9993 ± 0.0042 for the first, 1.03 ± 0.1 for the second.

ATACGGGAGC and ATACGGGGAT are the same in switch fluorescence ratio: 1.01 ± 0.048 for the first, 1.014 ± 0.0093 for the second.

ATACGGGGTT and ATACGGGTTT are within error of each other in switch fluorescence ratio: 1.008 ± 0.0032 for the first, 1.024 ± 0.0097 for the second.

Going from ATACGGTTTT to ATACGTAGTC, the switch fluorescence ratio rises from 0.996 ± 0.026 to 1.07 ± 0.014.

ATACTAGGAG and ATACTAGGGG are within error of each other in switch fluorescence ratio: 1 ± 0.026 for the first, 1.01 ± 0.02 for the second.

Compared with ATACTCTGTT, ATACTGAGGA is higher in switch fluorescence ratio: 0.9926 ± 0.0031 for the first, 1.05 ± 0.026 for the second.

Going from ATACTGGTAG to ATACTGTTAC, the switch fluorescence ratio rises from 1.02 ± 0.047 to 1.359 ± 0.0057.

ATACTTAGGT and ATACTTGTAT are within error of each other in switch fluorescence ratio: 1.07 ± 0.1 for the first, 1.0048 ± 0.00054 for the second.

ATAGAAGAGA and ATAGAAGTTA are the same in switch fluorescence ratio: 0.985 ± 0.027 for the first, 0.985 ± 0.031 for the second.

Going from ATAGACAGGC to ATAGACGCTA, the switch fluorescence ratio rises from 1.04 ± 0.021 to 1.12 ± 0.017.

ATAGACGGTT and ATAGACTAGA are within error of each other in switch fluorescence ratio: 1.02 ± 0.048 for the first, 0.9856 ± 0.003 for the second.

ATAGACTGAG and ATAGACTTCT are within error of each other in switch fluorescence ratio: 0.983 ± 0.012 for the first, 0.9966 ± 0.0064 for the second.

Compared with ATAGACTTTA, ATAGAGTGGG is lower in switch fluorescence ratio: 1.04 ± 0.043 for the first, 0.966 ± 0.019 for the second.

ATAGATGGTG and ATAGATTGCC are within error of each other in switch fluorescence ratio: 0.987 ± 0.025 for the first, 0.993 ± 0.022 for the second.

Going from ATAGCAGTTA to ATAGCCGGAC, the switch fluorescence ratio rises from 1.02 ± 0.01 to 1.081 ± 0.008.

ATAGCCGGGT and ATAGCGGAGA are within error of each other in switch fluorescence ratio: 1.04 ± 0.088 for the first, 1 ± 0.036 for the second.

ATAGCTCTTA and ATAGCTGGAA are within error of each other in switch fluorescence ratio: 0.9764 ± 0.0074 for the first, 0.9678 ± 0.0011 for the second.

Compared with ATAGCTTCAC, ATAGGAAGGA is lower in switch fluorescence ratio: 1.15 ± 0.015 for the first, 1.04 ± 0.056 for the second.

First: ATAGGAATGG
Second: ATAGGAGGGC
The switch fluorescence ratio of the first is higher: 1.02 ± 0.023 for the first, 0.935 ± 0.036 for the second.

ATAGGAGTGG and ATAGGATGGA are within error of each other in switch fluorescence ratio: 0.964 ± 0.053 for the first, 1 ± 0.029 for the second.

ATAGGATGTG and ATAGGCCTTG are the same in switch fluorescence ratio: 1.01 ± 0.023 for the first, 1.01 ± 0.031 for the second.

ATAGGCGGTT and ATAGGGCCAG are within error of each other in switch fluorescence ratio: 1.02 ± 0.012 for the first, 1.06 ± 0.067 for the second.

ATAGGGGCAG and ATAGGGGCTT are within error of each other in switch fluorescence ratio: 0.996 ± 0.03 for the first, 0.9989 ± 0.0085 for the second.

ATAGGGGGCA and ATAGGGGGTA are within error of each other in switch fluorescence ratio: 0.98 ± 0.023 for the first, 1 ± 0.015 for the second.

ATAGGGGTTC and ATAGGGTCGG are within error of each other in switch fluorescence ratio: 0.994 ± 0.035 for the first, 1.02 ± 0.063 for the second.

ATAGGGTTTC and ATAGGTCTGC are within error of each other in switch fluorescence ratio: 0.99 ± 0.01 for the first, 0.975 ± 0.038 for the second.

ATAGTAAGCC and ATAGTAATCG are within error of each other in switch fluorescence ratio: 1.04 ± 0.031 for the first, 0.988 ± 0.064 for the second.

ATAGTAGGGG and ATAGTAGTCG are within error of each other in switch fluorescence ratio: 0.994 ± 0.045 for the first, 1.03 ± 0.1 for the second.

ATAGTATATG and ATAGTATTGA are within error of each other in switch fluorescence ratio: 0.9786 ± 0.0088 for the first, 0.969 ± 0.022 for the second.

ATAGTGAGTA and ATAGTGCTTG are within error of each other in switch fluorescence ratio: 0.996 ± 0.018 for the first, 0.988 ± 0.046 for the second.

ATAGTGGCGC and ATAGTTACGC are within error of each other in switch fluorescence ratio: 0.997 ± 0.016 for the first, 1.03 ± 0.022 for the second.

ATAGTTATTT and ATAGTTGGGG are within error of each other in switch fluorescence ratio: 0.989 ± 0.014 for the first, 1.02 ± 0.045 for the second.

ATAGTTTTCG and ATATAAAACG are within error of each other in switch fluorescence ratio: 1 ± 0.034 for the first, 0.983 ± 0.018 for the second.

ATATAAATTT and ATATAACAGG are within error of each other in switch fluorescence ratio: 1 ± 0.025 for the first, 1.03 ± 0.048 for the second.

First: ATATAATTTT
Second: ATATACCGTC
The switch fluorescence ratio of the first is lower: 0.979 ± 0.031 for the first, 1.05 ± 0.028 for the second.

ATATAGAGG and ATATAGGGTT are within error of each other in switch fluorescence ratio: 1.02 ± 0.019 for the first, 1.04 ± 0.038 for the second.

Compared with ATATAGTCTG, ATATATATGG is higher in switch fluorescence ratio: 0.9893 ± 0.0046 for the first, 1.03 ± 0.035 for the second.

Compared with ATATATCGGG, ATATATTCC is higher in switch fluorescence ratio: 0.999 ± 0.013 for the first, 1.1 ± 0.019 for the second.

ATATATTTTA and ATATCAATC are within error of each other in switch fluorescence ratio: 1.01 ± 0.022 for the first, 1.02 ± 0.034 for the second.

First: ATATCAATGG
Second: ATATCCCAGG
The switch fluorescence ratio of the first is lower: 1.058 ± 0.0082 for the first, 4.21 ± 0.64 for the second.

ATATCCCTCG and ATATCCGGGA are within error of each other in switch fluorescence ratio: 1.01 ± 0.013 for the first, 1.03 ± 0.015 for the second.

ATATCGGGGG and ATATCGTCGG are within error of each other in switch fluorescence ratio: 1.01 ± 0.081 for the first, 0.988 ± 0.028 for the second.
